Assay results published in PMC10397247.
Each block holds one binder with its values, some of them ahead of it.

How the values were obtained:
Test in all cases: two-hybrid library CCNG1;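 further: natural log of median RNA to DNA barcode read ratio; higher means stronger binding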
P4mSN = molecular target: T1, P4mSN
T1 chain: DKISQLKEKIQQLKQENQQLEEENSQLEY

P6mSN = molecular target: T2, P6mSN
T2 chain: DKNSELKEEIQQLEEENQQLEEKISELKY

P7mSN = molecular target: T3, P7mSN
T3 chain: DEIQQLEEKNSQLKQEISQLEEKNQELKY

P8mSN = molecular target: T4, P8mSN
T4 chain: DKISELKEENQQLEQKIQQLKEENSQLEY

P5mSN = molecular target: T5, P5mSN
T5 chain: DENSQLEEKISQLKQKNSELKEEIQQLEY

P9mSN = molecular target: T6, P9mSN
T6 chain: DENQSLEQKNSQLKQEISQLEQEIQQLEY

4H3162-bA = molecular target: T7, 4H3162-bA
T7 chain: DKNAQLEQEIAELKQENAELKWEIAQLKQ

4H3817-bA = molecular target: T8, 4H3817-bA
T8 chain: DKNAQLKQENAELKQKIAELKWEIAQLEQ

4H584-bA = molecular target: T9, 4H584-bA
T9 chain: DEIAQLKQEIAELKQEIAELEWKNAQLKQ

4H1985-bA = molecular target: T10, 4H1985-bA
T10 chain: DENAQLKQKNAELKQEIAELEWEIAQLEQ

4H1899-bA = molecular target: T11, 4H1899-bA
T11 chain: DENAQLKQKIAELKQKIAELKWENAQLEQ

4H906-bA = molecular target: T12, 4H906-bA
T12 chain: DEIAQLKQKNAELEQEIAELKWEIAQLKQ

4H591-bA = molecular target: T13, 4H591-bA
T13 chain: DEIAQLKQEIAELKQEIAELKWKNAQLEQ

4H3497-bA = molecular target: T14, 4H3497-bA
T14 chain: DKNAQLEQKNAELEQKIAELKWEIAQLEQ

4H3974-bA = molecular target: T15, 4H3974-bA
T15 chain: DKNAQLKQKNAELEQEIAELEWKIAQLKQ

4H1804-bA = molecular target: T16, 4H1804-bA
T16 chain: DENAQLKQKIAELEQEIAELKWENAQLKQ

4H3926-bA = molecular target: T17, 4H3926-bA
T17 chain: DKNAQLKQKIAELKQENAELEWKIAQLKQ

4H570-bA = molecular target: T18, 4H570-bA
T18 chain: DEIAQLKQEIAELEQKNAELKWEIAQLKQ

4H3129-bA = molecular target: T19, 4H3129-bA
T19 chain: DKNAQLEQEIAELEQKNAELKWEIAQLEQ

O14-bA = molecular target: T20, O14-bA
T20 chain: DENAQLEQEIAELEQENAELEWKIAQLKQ

4H619-bA = molecular target: T21, 4H619-bA
T21 chain: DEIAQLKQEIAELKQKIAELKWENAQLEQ

4H3175-bA = molecular target: T22, 4H3175-bA
T22 chain: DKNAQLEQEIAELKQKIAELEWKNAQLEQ

4H626-bA = molecular target: T23, 4H626-bA
T23 chain: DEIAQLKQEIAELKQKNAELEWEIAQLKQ

4H3631-bA = molecular target: T24, 4H3631-bA
T24 chain: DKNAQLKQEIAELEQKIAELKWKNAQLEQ

4H3414-bA = molecular target: T25, 4H3414-bA
T25 chain: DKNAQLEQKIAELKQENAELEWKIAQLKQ

4H3277-bA = molecular target: T26, 4H3277-bA
T26 chain: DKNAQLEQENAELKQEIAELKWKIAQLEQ

4H3172-bA = molecular target: T27, 4H3172-bA
T27 chain: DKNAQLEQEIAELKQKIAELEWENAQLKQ

4H3613-bA = molecular target: T28, 4H3613-bA
T28 chain: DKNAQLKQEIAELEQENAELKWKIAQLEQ

4H3298-bA = molecular target: T29, 4H3298-bA
T29 chain: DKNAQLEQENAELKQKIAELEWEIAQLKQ

4H3462-bA = molecular target: T30, 4H3462-bA
T30 chain: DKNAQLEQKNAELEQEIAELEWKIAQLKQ

4H1710-bA = molecular target: T31, 4H1710-bA
T31 chain: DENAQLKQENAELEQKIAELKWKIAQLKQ

4H3638-bA = molecular target: T32, 4H3638-bA
T32 chain: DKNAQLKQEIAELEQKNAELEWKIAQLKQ

4H850-bA = molecular target: T33, 4H850-bA
T33 chain: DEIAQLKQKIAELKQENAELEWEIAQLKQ

4H3858-bA = molecular target: T34, 4H3858-bA
T34 chain: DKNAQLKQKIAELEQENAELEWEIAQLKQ

4H3628-bA = molecular target: T35, 4H3628-bA
T35 chain: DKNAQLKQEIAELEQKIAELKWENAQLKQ

4H3855-bA = molecular target: T36, 4H3855-bA
T36 chain: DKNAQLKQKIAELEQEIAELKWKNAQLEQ

4H906-bN = molecular target: T37, 4H906-bN
T37 chain: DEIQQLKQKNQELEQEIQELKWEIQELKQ

4H906-bH = molecular target: T38, 4H906-bH
T38 chain: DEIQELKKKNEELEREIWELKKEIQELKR

4H3277-bH = molecular target: T39, 4H3277-bH
T39 chain: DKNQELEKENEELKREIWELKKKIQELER

4H3628-bH = molecular target: T40, 4H3628-bH
T40 chain: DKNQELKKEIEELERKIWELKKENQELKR

4H3817-bH = molecular target: T41, 4H3817-bH
T41 chain: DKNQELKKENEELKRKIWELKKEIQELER

4H1985-bH = molecular target: T42, 4H1985-bH
T42 chain: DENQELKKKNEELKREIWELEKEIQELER

4H584-bH = molecular target: T43, 4H584-bH
T43 chain: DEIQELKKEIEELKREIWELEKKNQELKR

4H619-bH = molecular target: T44, 4H619-bH
T44 chain: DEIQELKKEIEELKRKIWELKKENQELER

4H3631-bH = molecular target: T45, 4H3631-bH
T45 chain: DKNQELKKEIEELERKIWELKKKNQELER

4H3129-bH = molecular target: T46, 4H3129-bH
T46 chain: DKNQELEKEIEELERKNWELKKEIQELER

4H3974-bH = molecular target: T47, 4H3974-bH
T47 chain: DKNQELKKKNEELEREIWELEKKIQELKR

4H3462-bH = molecular target: T48, 4H3462-bH
T48 chain: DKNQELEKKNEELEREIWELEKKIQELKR

4H1804-bH = molecular target: T49, 4H1804-bH
T49 chain: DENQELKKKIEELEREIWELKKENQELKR

4H591-bH = molecular target: T50, 4H591-bH
T50 chain: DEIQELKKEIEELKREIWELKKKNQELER

4H3381-bH = molecular target: T51, 4H3381-bH
T51 chain: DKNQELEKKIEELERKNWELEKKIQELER

4H3298-bH = molecular target: T52, 4H3298-bH
T52 chain: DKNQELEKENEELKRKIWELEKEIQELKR

4H1899-bH = molecular target: T53, 4H1899-bH
T53 chain: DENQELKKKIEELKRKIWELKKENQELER

4H3497-bH = molecular target: T54, 4H3497-bH
T54 chain: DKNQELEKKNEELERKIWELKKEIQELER

4H3858-bH = molecular target: T55, 4H3858-bH
T55 chain: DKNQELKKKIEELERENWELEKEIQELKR

4H3638-bH = molecular target: T56, 4H3638-bH
T56 chain: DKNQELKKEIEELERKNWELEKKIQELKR

4H3175-bH = molecular target: T57, 4H3175-bH
T57 chain: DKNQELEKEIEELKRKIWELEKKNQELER

4H3172-bH = molecular target: T58, 4H3172-bH
T58 chain: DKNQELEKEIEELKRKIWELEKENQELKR

4H3926-bH = molecular target: T59, 4H3926-bH
T59 chain: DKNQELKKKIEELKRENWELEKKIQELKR

4H626-bH = molecular target: T60, 4H626-bH
T60 chain: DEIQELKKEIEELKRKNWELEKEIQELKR

4H570-bH = molecular target: T61, 4H570-bH
T61 chain: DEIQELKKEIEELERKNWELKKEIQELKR

4H3414-bH = molecular target: T62, 4H3414-bH
T62 chain: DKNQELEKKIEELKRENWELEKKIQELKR

4H1710-bH = molecular target: T63, 4H1710-bH
T63 chain: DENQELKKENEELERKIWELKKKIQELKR

4H850-bH = molecular target: T64, 4H850-bH
T64 chain: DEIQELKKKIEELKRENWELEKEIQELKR

4H3162-bH = molecular target: T65, 4H3162-bH
T65 chain: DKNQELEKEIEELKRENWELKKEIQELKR

4H3613-bH = molecular target: T66, 4H3613-bH
T66 chain: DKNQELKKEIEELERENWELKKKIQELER

- interaction score (P4mSN): -1.76
- interaction score (P6mSN): -0.838
- interaction score (P7mSN): -1.04
- interaction score (P8mSN): -1.53
- interaction score (P5mSN): -1.42
- interaction score (P9mSN): -1.07
Binder: DKISQLKEKIQQLKQENQQLEEENSQLEY [P4mSN]

- interaction score (4H3817-bA): -0.0173
- interaction score (4H584-bA): -0.489
- interaction score (4H1985-bA): -0.729
- interaction score (4H906-bA): -0.55
- interaction score (4H3974-bA): -0.32
- interaction score (4H1804-bA): 0.9
- interaction score (4H570-bA): -0.765
- interaction score (4H3129-bA): 0.386
- interaction score (4H619-bA): -1.65
- interaction score (4H3631-bA): 0.394
- interaction score (4H3414-bA): -0.0712
- interaction score (4H3172-bA): -0.016
- interaction score (4H3638-bA): -0.376
- interaction score (4H850-bA): -0.531
Binder: DENAQLKQKIAELEQEIAELKWENAQLKQ [4H1804-bA]

- interaction score (4H906-bH): -0.842
- interaction score (4H3817-bH): -0.0504
- interaction score (4H1985-bH): 0.0377
- interaction score (4H584-bH): 0.198
- interaction score (4H619-bH): -0.693
- interaction score (4H3631-bH): -0.276
- interaction score (4H3129-bH): -0.437
- interaction score (4H3974-bH): -0.359
- interaction score (4H1804-bH): 0.525
- interaction score (4H3638-bH): -0.512
- interaction score (4H3172-bH): -0.154
- interaction score (4H570-bH): -0.192
- interaction score (4H3414-bH): -0.0322
- interaction score (4H850-bH): -0.238
Binder: DENQELKKKIEELEREIWELKKENQELKR [4H1804-bH]

Continued, binder first:

Binder: DENAQLKQENAELEQKIAELKWKIAQLKQ [4H1710-bA]
- interaction score (4H3162-bA): -0.713
- interaction score (4H3817-bA): 1.53
- interaction score (4H584-bA): -0.0679
- interaction score (4H1985-bA): 2.11
- interaction score (4H1899-bA): -0.115
- interaction score (4H906-bA): 0.904
- interaction score (4H591-bA): -1.11
- interaction score (4H3497-bA): 1.01
- interaction score (4H3974-bA): 1.34
- interaction score (4H1804-bA): -0.669
- interaction score (4H3926-bA): 0.352
- interaction score (4H570-bA): -1.24
- interaction score (4H3129-bA): 0.367
- interaction score (O14-bA): -1.06
- interaction score (4H619-bA): 0.519
- interaction score (4H3175-bA): -0.421
- interaction score (4H626-bA): -0.621
- interaction score (4H3631-bA): 1.48
- interaction score (4H3414-bA): -0.541
- interaction score (4H3277-bA): -0.282
- interaction score (4H3172-bA): -0.97
- interaction score (4H3613-bA): 0.262
- interaction score (4H3298-bA): 0.819
- interaction score (4H3462-bA): 1.04
- interaction score (4H1710-bA): 0.102
- interaction score (4H3638-bA): 0.729
- interaction score (4H850-bA): 0.0118
- interaction score (4H3858-bA): 0.318
- interaction score (4H3628-bA): 0.848
- interaction score (4H3855-bA): 0.515

Binder: DEIQQLKQKNQELEQEIQELKWEIQELKQ [4H906-bN]
- interaction score (P4mSN): -1.42
- interaction score (4H906-bN): -0.198

Binder: DENQELKKENEELERKIWELKKKIQELKR [4H1710-bH]
- interaction score (4H906-bH): -0.745
- interaction score (4H3277-bH): 0.846
- interaction score (4H3628-bH): 1.35
- interaction score (4H3817-bH): 0.823
- interaction score (4H1985-bH): 0.219
- interaction score (4H584-bH): 0.848
- interaction score (4H619-bH): 0.404
- interaction score (4H3631-bH): 0.643
- interaction score (4H3129-bH): 0.0138
- interaction score (4H3974-bH): 0.887
- interaction score (4H3462-bH): 0.869
- interaction score (4H1804-bH): -0.929
- interaction score (4H591-bH): -1.94
- interaction score (4H3381-bH): -1.3
- interaction score (4H3298-bH): -0.00934
- interaction score (4H1899-bH): 0.26
- interaction score (4H3497-bH): 0.794
- interaction score (4H3858-bH): -0.238
- interaction score (4H3638-bH): -0.567
- interaction score (4H3175-bH): 0.0594
- interaction score (4H3172-bH): 0.358
- interaction score (4H3926-bH): 0.806
- interaction score (4H626-bH): 0.853
- interaction score (4H570-bH): -0.481
- interaction score (4H3414-bH): -0.234
- interaction score (4H1710-bH): 0.661
- interaction score (4H850-bH): 0.221
- interaction score (4H3162-bH): -0.655
- interaction score (4H3613-bH): -0.955
